Assay results: patent US20240041978A1, “LA PROTEIN AS A NOVEL REGULATOR OF OSTEOCLASTOGENESIS” (The U.S.A., as Represented by the Secretary, Department of …, priority 2021, published 2024)
“Also recorded” adds a separate entry of the source. Peptide text beside a SMILES is read from it. * marks the point of attachment. Cbz = O=C(OCc1ccccc1)*; CH2F = FC*

T1: Anx A5 on PS containing liposomes (Homo sapiens, UniProt P08758)
T1 sequence (P08758 1-320): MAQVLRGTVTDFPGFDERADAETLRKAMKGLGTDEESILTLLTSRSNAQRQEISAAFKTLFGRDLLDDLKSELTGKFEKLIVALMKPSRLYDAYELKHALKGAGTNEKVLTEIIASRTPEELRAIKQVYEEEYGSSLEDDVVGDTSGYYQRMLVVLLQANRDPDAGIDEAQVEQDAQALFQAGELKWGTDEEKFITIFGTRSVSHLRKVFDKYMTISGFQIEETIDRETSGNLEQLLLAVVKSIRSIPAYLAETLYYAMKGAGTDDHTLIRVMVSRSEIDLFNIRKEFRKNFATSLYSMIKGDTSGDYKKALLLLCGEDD

B1: La 188-375: recombinant amino acids 188-375 of human La (protein, listed as Homo sapiens)
chain: YFAKKNEERKQNKVEAKLRAKQEQEAKQKLEEDAEMKSLEEKIGCLLKFSGDLDDQTCREDLHILFSNHGEIKWIDFVRGAKEGIILFKEKAKEALGKAKDANNGNLQLRNKEVTWEVLEGEVEKEALKKIIEDQQESLNKWKSKGRRFKGKGKGNKAAQPGSGKGKVQFQGKKTKFASDDEHDEHDE
B2: La 1-187: recombinant N-terminal half of La 1-375 (protein, UniProt P05455 1-187, looked up, fragment)
chain: MAENGDNEKMAALEAKICHQIEYYFGDFNLPRDKFLKEQIKLDEGWVPLEIMIKFNRLNRLTTDFNVIVEALSKSKAELMEISEDKTKIRRSPSKPLPEVTDEYKNDVKNRSVYIKGFPTDATLDDIKEWLEDKGQVLNIQMRRTLHKAFKGSIFVVFDSIESAKKFVETPGQKYKETDLLILFKDD
B3: La 1-408: recombinant full-length human La protein, N-terminal 6×his tag (protein, listed as Homo sapiens)
chain: MAENGDNEKMAALEAKICHQIEYYFGDFNLPRDKFLKEQIKLDEGWVPLEIMIKFNRLNRLTTDFNVIVEALSKSKAELMEISEDKTKIRRSPSKPLPEVTDEYKNDVKNRSVYIKGFPTDATLDDIKEWLEDKGQVLNIQMRRTLHKAFKGSIFVVFDSIESAKKFVETPGQKYKETDLLILFKDDYFAKKNEERKQNKVEAKLRAKQEQEAKQKLEEDAEMKSLEEKIGCLLKFSGDLDDQTCREDLHILFSNHGEIKWIDFVRGAKEGIILFKEKAKEALGKAKDANNGNLQLRNKEVTWEVLEGEVEKEALKKIIEDQQESLNKWKSKGRRFKGKGKGNKAAQPGSGKGKVQFQGKKTKFASDDEHDEHDENGATGPVKRAREETDKEEPASKQQKTENGAGDQ
modifications: N-terminal 6xHis tag
notes: recombinant full-length human La protein, N-terminal 6×his tag
B4: heat-inactivated La 1-408: recombinant heat-inactivated La 1-408 (protein, UniProt P05455 1-408, looked up)
chain: B3 chain
modifications: full-length heat-inactivated

Columns and labels:
[1] = system: human monocyte-derived osteoclasts; test: Osteoclast fusion assay (number of fusion events, fluorescence microscopy); type: cell-based; conditions: for osteoclast multinucleation / fusion: screen of La 188-375 peptide library, control no addition; for formation of multinucleated syncytia (osteoclast fusion): recombinant protein ~40 nM added end of day 2 post-RANKL, overnight
Description: Osteoclasts: Elutriated monocytes from healthy donors were obtained. Cells were plated at 2.9×10^5 per cm^2 in 35 mm dishes with polymer coverslip bottoms (Ibidi #81156) for imaging or 35 mm or 10 cm dishes for biochemical experiments in complete media [α-MEM supplemented with 10% Fetal Bovine Serum (FBS) and penicillin-streptomycin-L-glutamine (Gibco Invitrogene #12571063; #26140079 and #10378016, respectively)]. Monocytes were differentiated to M2 macrophages in the presence of 100 ng/ml M-CSF for 6 days and then differentiated with 100 ng/ml M-CSF and 100 ng/ml RANKL for 3 days unless indicated otherwise. RAW 264.7 cells (ATCC, Manassas, VA, #TIB-71) were maintained in DMEM supplemented with 10% FBS to a maximum of 8 passages. RAW 264.7 cells were differentiated to osteoclasts in the presence of 100 ng/ml murine RANKL for 5 days. To separate unfused mononucleated and fused, multinucleated RAW 264.7 cells into separate fractions, advantage was taken of the much stronger adherence of multinucleated cells to culture dish plastic. After washing in PBS, mixed RAW cultures (following RANKL differentiation) were left in Ca^2+ and Mg^2+ free PBS for 10 minutes at room temperature. Culture dishes were then tapped on the lab bench and a large portion of unfused, mononucleated RAW cells were released, and these released cells were collected via centrifugation. This process was repeated 2-4 times until dishes were left with a population of primarily fused, multinucleated syncytia. Mononucleated and multinucleated cell fractions were then processed for biochemical or imaging experiments as described below.
Constructs & Recombinant proteins & Transfection: Recombinant La 1-408, 1-375, 1-375 Q20A_Y24A_D33I, 1-187 and 188-375 were amplified with primers designed with overlapping sequences and inserted between NdeI/HindIII in the V78 pET28A E. coli expression vector, adding to each a N-terminal 6×his affinity tag. La 1-408 was expressed as a recombinant protein in E. coli and purified using IMAC columns by SD Biosciences (San Diego, CA). The remaining constructs were transformed into BL2 (DE3) chemically competent E. coli (Thermo Fisher Scientific) and protein expression was induced with IPTG. Cells were lysed with Bugbuster (Sigma), and 6×his-La proteins were affinity purified using HisPur Cobalt Spin columns (Thermo Fisher Scientific), each according to the manufacturer's instructions. Endotoxin contaminates were depleted from affinity purified 6×his-La proteins using Pierce high-capacity endotoxin removal columns (Thermo Fisher Scientific), according to the manufacturer's instructions. Proteins were then sterile filtered, aliquoted and kept at −80 C.
Plasmids were introduced into primary osteoclasts at day 2 of RANKL stimulation via jetPRIME (Polyplus Transfection). FLAG-La 1-408, FLAG-La 1-375 and FLAG-La 1-375 Q20A_Y24A_D33I plasmids were a gift of the Maraia Lab (NICHD). Briefly, SSB (UniProt P05455) was inserted between HindIII and BamHI the pFLAG-CMV2 vector (Sigma). “Uncleavable” La was produced by taking the FLAG-La 1-408 plasmid and making two point mutations at amino acids D371A and D374A, abrogating the caspase cleavage sites at the C-terminal region of the protein (Emory Integrated Genomics Core). siRNA were introduced into primary osteoclasts after 1 day of RANKL stimulation via Lipofectamine RNAiMAX (Thermo Fisher Scientific). Non-targeted (Cat #4390843) and SSB-targeted (Cat #4392420_ID:s13469) siRNA were introduced at a concentration of 5 ng/ml (Silencer Select, Ambion).
Fusion Assays: Osteoclast fusion in the culture systems was evaluated by fluorescence microscopy (Verma et al., J Biol Chem 293, 254-270, doi:10.1074/jbc.M117.809681 (2018)). Briefly, cells were fixed with 4% paraformaldehyde at timepoints of interest, permeabilized with 0.1% TRITON™ X-100 and blocked with 5% FBS. Cells were then stained with phallodin-ALEXAFLURO®488 and Hoechst to label cells' actin cytoskeleton and nuclei, respectively. […]

[2] = system: production of LMW La in human osteoclasts; test: La cleavage and localization in differentiating osteoclasts with caspase inhibitor (Western blot, immunofluorescence); type: cell-based; conditions: for production of LMW (cleaved) La: Western blot, differentiating human osteoclasts, Day 3-4 post-RANKL
Description: To identify the functional form of La associated with osteoclastogenesis, the relationship was determined between the appearance of LMW La and fusion between osteoclasts. During apoptotic progression human La is cleaved by caspases at […], removing La's NLS (Rutjes et al., Cell Death Differ 6, 976-986, doi:10.1038/sj.cdd.4400571 (1999); Ayukawa et al., J Biol Chem 275, 34465-34470, doi:10.1074/jbc.M003673200 (2000)).
Biochemical approaches: Cells were lysed on ice via pulse sonication and rotated end over end at 4° C. for 45 minutes in the presence of protease inhibitors (cOmplete, Sigma, #118361700010). Steady-state protein levels were evaluated via SDS-PAGE followed by immunoblotting. Bulk proteins were evaluated via SDS-PAGE followed by silver stain (SilverQuest, Thermo Fisher Scientific). Bands of interest were cut from silver stained gels, destained and evaluated by liquid chromatography coupled with tandem mass spectrometry (Proteomics Core, NHLBI). The selective enrichment of cytosolic vs membrane associated protein fractions was carried out using MEM-PER™ Plus Membrane Protein Extraction Kit (Thermo Fisher Scientific, catalogue #89842) according to the manufacturer's instructions.
Fluorescence Microscopy Imaging: In the immunofluorescence experiments the cells were washed with PBS and fixed with warm freshly prepared 4% formaldehyde in PBS (Sigma, F1268) at 37° C. The cells were washed three times with PBS. To permeabilize the cells, they were incubated for 5 min in 0.1% TRITON™ X100 in PBS. The cells were again washed three times with PBS and placed into PBS with 10% FBS, for 10 min at the room temperature to suppress non-specific binding. Then the cells were incubated with primary antibodies for 1 hour in PBS with 10% FBS. […]

[3] = target: T1, Anx A5 on PS containing liposomes; test: Liposome binding assay
Excerpt: Anx A5 binds to PS containing membranes in a Ca^2+-dependent manner. Recombinant La was introduced alone or along with recombinant Anx A5 to PS containing liposomes and pelleted liposomes by centrifugation to evaluate whether La was enriched with liposomes or in supernatant (FIG. 12C).
Liposome binding assay: Multilamellar liposomes were formed from pure PC or 9:1 (w/w) mixture of PC and PS. Both lipid compositions were supplemented with 0.5 mol % of lissamine rhodamine phosphatidylethanolamine. To prepare liposomes, lipid stock in benzene/methanol (95:5) was frozen in liquid nitrogen and freeze-dried overnight using SPEEDVAC™ (Savant). Dried lipid was resuspended in aqueous buffer (100 mM NaCl, 10 mM Hepes, pH 7.0) at 1 mM total lipid concentration and vortexed. Proteins and CaCl2 were added to the liposomes and the mixtures were incubated on ice for 30 minutes. To pellet, liposomes were centrifugated at 15,000 g for 20 minutes to pellet, based on rhodamine fluorescence ˜95% of liposomes. Centrifugated samples were then fractionated into a top, liposome-depleted fraction and a bottom fraction containing liposomes and liposome-bound proteins. Fractions were then solubilized via addition of Laemmli buffer (Bio Rad) and separated via SDS-PAGE, as described above. Recombinant La and recombinant Anx A5 were detected via their n-terminal 6×His tag via α-6×His antibody (Abcam) and signals for soluble vs liposome bound protein fractions were evaluated via densitometry. Data were presented as a percentage of protein signal bound to liposomes where: […]

Molecule	osteoclast multinucleation / fusion [1]	formation of multinucleated syncytia (osteoclast fusion) [1]	also measured
COC(=O)C[C@H](NC(=O)[C@H](C)NC(=O)[C@@H](NC(=O)OCc1ccccc1)C(C)C)C(=O)CF [z-VAD, z-VAD-fmk] (Cbz-Val-Ala-Asp(OMe)-CH2F)	–	–	ability of osteoclasts to form multinucleated syncytia ([1]; pan caspase inhibitor vs vehicle, Day 3 post-RANKL): significantly perturbed; production of LMW (cleaved) La [2]: blocked; production of LMW (cleaved) La ([2]; listed as z-VAD-fmk): block the production of cleaved La; localization of FL La ([2]; α-FL La immunofluorescence, Day 3): premature retention of FL La within the nuclei
AKLRAKQEQEAKQKLEEDAEMKSLEEKIGC (inhibitory La peptide) [Peptide 2]	inhibit fusion and the formation of multinucleated osteoclasts; also recorded: specifically inhibit	–	–
Anx A5: recombinant annexin A5, PS-binding peripheral membrane protein [reference compound]	–	–	pelleting with liposomes ([3]; PS containing liposomes, La with Anx A5, Ca^2+): pelleted with liposomes; pelleting with liposomes ([3]; liposomes lacking PS): neither La nor Anx A5 pelleted
GEVEKEALKKIIEDQQESLNKWKSKGRRFK (inhibitory La peptide) [Peptide 9]	inhibit fusion and the formation of multinucleated osteoclasts; also recorded: specifically inhibit	–	–
B1	promoted fusion	greatly promoted	–
B2	–	no effect	–
B3	–	significantly promoted	–
B4	–	not observed	–
